For 14 substances, binding signal (z-score (mean of top ten 7-mers)) results are on record in paper PMC12990809.

What all share (assay): pulldown
Conditions in all cases: 20 nM protein, 1.5 uM RNA pool; 20 mM HEPES pH 7.8, 70 mM KCl, 10 mM NaCl, 10% glycerol, 2 mM DTT, 0.1 ug/uL BSA; 30 min, 4 C

The subject of series [1] is T1, PK27602.1 (Cannabis sativa).
T1 sequence: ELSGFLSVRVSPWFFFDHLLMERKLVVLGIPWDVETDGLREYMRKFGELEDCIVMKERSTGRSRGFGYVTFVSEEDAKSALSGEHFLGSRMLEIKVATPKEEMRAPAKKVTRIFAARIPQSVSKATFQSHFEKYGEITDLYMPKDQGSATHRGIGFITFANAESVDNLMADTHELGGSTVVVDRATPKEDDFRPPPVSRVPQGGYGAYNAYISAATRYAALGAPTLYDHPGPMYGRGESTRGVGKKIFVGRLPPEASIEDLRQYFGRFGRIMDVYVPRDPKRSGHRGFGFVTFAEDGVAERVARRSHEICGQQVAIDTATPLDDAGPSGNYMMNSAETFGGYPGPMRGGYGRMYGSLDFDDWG

The target in series [2] is T2, PK20770.1 (Cannabis sativa) (UniProt A0A7J6HVT3).
T2 sequence: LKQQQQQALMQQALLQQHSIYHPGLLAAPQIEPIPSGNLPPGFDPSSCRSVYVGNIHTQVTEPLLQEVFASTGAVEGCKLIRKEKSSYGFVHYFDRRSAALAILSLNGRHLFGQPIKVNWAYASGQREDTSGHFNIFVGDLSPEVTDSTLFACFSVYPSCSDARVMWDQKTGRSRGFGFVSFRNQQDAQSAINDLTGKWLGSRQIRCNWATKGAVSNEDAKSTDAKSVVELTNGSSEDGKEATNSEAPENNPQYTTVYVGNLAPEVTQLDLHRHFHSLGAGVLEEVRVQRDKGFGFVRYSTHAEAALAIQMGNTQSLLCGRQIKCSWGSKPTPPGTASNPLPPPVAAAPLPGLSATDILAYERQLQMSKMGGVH

The target of series [3] is T3, cwf2 (Schizosaccharomyces pombe) (UniProt P87126).
T3 sequence: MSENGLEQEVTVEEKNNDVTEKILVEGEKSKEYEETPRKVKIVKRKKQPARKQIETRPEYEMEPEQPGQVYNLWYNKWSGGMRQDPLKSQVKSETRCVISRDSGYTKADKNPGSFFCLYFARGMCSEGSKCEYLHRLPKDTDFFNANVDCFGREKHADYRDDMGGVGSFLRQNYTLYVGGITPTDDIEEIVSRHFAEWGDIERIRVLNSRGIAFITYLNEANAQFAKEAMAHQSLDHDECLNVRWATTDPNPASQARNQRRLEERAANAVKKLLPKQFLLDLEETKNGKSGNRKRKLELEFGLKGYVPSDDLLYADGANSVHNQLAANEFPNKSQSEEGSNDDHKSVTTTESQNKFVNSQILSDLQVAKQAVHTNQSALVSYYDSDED

Series [4] addresses T4, PK16782.1 E6F;T7E (Cannabis sativa) (UniProt A0A7J6H871).
T4 sequence: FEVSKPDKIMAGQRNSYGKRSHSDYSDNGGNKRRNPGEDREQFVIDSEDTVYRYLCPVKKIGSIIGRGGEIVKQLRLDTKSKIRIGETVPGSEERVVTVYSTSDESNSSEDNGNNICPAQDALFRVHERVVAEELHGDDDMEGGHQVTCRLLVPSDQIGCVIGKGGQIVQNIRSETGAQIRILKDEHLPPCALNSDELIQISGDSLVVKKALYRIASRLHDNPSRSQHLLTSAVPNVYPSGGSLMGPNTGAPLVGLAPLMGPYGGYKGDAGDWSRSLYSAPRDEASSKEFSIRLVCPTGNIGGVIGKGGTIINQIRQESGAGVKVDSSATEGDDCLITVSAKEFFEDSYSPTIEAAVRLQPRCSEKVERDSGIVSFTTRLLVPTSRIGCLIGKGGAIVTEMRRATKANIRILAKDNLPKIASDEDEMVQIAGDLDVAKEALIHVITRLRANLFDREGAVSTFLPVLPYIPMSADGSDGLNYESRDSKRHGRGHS

In series [5] the target is T5, rbm-28 (Caenorhabditis elegans) (UniProt O62325).
T5 sequence: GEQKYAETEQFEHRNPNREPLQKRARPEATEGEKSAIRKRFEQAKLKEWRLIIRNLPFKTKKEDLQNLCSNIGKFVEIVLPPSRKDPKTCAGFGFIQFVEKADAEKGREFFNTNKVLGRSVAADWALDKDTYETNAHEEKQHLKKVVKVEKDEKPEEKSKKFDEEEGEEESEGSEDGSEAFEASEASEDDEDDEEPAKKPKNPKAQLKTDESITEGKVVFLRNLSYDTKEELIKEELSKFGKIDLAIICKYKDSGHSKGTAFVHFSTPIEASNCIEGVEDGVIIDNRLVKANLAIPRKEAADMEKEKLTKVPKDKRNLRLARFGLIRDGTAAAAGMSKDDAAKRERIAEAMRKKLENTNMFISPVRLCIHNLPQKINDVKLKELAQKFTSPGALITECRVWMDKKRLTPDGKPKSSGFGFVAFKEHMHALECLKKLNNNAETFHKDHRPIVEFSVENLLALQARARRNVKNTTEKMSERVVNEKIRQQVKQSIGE

The target in series [6] is T6, K07H8.9 (Caenorhabditis elegans) (UniProt O45180).
T6 sequence: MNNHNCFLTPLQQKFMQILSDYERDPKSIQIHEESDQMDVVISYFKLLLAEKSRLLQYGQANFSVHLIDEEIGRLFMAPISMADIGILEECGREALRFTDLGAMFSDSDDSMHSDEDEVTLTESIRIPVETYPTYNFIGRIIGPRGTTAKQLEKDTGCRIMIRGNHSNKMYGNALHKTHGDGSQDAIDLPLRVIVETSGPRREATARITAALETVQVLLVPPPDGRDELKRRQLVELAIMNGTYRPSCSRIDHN

Series [7] concerns the target T7, PK05405.1 I85V;D92G;E327K;K328E (Cannabis sativa) (UniProt A0A7J6HVI1).
T7 sequence: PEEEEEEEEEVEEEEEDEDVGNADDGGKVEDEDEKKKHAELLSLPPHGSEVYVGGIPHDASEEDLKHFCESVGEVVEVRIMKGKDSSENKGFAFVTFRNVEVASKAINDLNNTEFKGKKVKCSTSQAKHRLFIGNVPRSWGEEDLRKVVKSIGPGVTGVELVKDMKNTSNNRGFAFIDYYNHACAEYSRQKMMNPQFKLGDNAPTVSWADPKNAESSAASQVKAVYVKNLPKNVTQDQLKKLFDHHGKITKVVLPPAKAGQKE

Series [8] has as its target T8, B0280.17 (Caenorhabditis elegans) (UniProt Q2V4X2).
T8 sequence: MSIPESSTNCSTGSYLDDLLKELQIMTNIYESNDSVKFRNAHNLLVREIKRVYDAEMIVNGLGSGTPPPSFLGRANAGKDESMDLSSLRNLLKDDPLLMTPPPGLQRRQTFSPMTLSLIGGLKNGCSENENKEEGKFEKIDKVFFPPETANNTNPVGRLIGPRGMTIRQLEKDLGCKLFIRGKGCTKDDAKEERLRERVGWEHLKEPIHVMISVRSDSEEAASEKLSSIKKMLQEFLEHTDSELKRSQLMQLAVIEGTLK

The test system of series [9] is T9, PK23097.1 (Cannabis sativa).
T9 sequence: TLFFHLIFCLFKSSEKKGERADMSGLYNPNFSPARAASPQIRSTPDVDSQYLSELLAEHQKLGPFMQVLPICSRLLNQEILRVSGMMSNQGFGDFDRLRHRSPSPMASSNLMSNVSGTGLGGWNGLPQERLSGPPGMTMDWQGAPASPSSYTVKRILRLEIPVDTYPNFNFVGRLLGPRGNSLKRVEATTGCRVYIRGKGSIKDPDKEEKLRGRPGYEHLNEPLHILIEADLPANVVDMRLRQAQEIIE

Series [10] has as its target T10, PK00840.1 S382G (Cannabis sativa) (UniProt A0A803NL23).
T10 sequence: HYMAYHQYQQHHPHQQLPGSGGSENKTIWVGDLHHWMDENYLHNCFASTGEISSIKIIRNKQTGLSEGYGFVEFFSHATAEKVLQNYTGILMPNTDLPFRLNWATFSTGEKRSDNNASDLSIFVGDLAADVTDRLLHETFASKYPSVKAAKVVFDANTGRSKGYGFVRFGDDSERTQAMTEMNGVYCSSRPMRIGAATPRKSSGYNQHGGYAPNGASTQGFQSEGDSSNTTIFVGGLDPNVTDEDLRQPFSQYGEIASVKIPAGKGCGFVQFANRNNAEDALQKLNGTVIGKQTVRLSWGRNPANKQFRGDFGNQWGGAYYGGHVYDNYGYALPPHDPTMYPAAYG

The target of series [11] is T11, CPEB1 E201G;P348T;C438Y (Homo sapiens) (UniProt Q9BZB8).
T11 sequence: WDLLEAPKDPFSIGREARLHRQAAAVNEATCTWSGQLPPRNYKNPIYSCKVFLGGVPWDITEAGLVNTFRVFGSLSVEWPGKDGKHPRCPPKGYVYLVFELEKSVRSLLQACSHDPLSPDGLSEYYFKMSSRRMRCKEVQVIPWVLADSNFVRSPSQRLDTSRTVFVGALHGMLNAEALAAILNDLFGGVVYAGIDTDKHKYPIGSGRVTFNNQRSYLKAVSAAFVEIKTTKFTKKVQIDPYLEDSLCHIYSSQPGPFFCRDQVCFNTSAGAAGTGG

Series [12] deals with T12, PK00513.1 (Cannabis sativa) (UniProt A0A7J6DZZ3).
T12 sequence: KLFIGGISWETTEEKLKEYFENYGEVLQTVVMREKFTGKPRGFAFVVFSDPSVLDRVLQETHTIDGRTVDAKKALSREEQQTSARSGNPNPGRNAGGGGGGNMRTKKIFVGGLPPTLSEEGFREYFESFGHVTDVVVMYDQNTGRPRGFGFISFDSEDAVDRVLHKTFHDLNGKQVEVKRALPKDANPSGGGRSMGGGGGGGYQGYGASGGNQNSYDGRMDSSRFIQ

For series [13], the target named is T13, C44B7.2 (Caenorhabditis elegans) (UniProt Q95QR5).
T13 sequence: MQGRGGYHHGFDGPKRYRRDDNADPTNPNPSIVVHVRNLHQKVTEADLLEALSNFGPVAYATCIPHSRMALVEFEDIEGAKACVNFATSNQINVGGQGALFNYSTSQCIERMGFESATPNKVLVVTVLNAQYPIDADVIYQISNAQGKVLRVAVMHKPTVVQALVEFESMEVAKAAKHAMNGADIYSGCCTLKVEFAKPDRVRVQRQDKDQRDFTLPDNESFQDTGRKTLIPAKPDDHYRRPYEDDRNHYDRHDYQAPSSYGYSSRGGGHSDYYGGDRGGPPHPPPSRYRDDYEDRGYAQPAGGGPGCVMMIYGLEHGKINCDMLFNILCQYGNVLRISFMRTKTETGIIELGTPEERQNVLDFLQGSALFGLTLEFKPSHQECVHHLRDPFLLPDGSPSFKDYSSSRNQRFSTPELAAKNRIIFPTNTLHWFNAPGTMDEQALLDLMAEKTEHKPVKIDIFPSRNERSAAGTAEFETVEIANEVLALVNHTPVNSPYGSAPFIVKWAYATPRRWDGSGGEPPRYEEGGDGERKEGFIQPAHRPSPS

In series [14] the target is T14, CBG03563 (Caenorhabditis briggsae) (UniProt A8WVC5).
T14 sequence: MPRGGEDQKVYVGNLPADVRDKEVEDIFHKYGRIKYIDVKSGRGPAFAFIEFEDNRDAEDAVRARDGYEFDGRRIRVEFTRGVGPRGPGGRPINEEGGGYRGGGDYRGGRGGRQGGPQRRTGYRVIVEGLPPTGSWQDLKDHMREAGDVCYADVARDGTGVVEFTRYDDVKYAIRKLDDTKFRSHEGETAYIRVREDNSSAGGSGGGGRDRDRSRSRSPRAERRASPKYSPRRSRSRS

For GAGUGA [RNAcompete motif RNCMPT00431], the binding signal (z-score (mean of top ten 7-mers)) in [1] came to 12.8.

With UUUUUU [RNAcompete motif RNCMPT00464], the binding signal (z-score (mean of top ten 7-mers)) in [2] was determined as 14.6.

AANUUG [RNAcompete motif RNCMPT00432] showed a binding signal (z-score (mean of top ten 7-mers)) in series [3] of 17.4.

In the case of AACCAAA [RNAcompete motif RNCMPT00460], the binding signal (z-score (mean of top ten 7-mers)) in [4] turned out to be 8.43.

For AGACUCU [RNAcompete motif RNCMPT00470], the binding signal (z-score (mean of top ten 7-mers)) in series [5] was determined as 9.34.

UACUNAC [RNAcompete motif RNCMPT00469] showed a binding signal (z-score (mean of top ten 7-mers)) in series [6] of 7.13.

In turn, UUUUUCG [RNAcompete motif RNCMPT00466] registered a binding signal (z-score (mean of top ten 7-mers)) in series [7] of 7.47.

In series [8], ACUAACA [RNAcompete motif RNCMPT00467] returned a binding signal (z-score (mean of top ten 7-mers)) of 10.4.

As for ACUAAC [RNAcompete motif RNCMPT00465], the binding signal (z-score (mean of top ten 7-mers)) in [9] turned out to be 12.4.

As for UUUUUU [RNAcompete motif RNCMPT00461], in series [10], the binding signal (z-score (mean of top ten 7-mers)) was determined as 7.67.

Substance UUUUUUA [RNAcompete motif RNCMPT00434] came in with a binding signal (z-score (mean of top ten 7-mers)) in [11] of 13.2.

The substance GUAGGAA [RNAcompete motif RNCMPT00462] came in with a binding signal (z-score (mean of top ten 7-mers)) in [12] of 10.4.

AACANA [RNAcompete motif RNCMPT00468] showed a binding signal (z-score (mean of top ten 7-mers)) in series [13] of 8.36.

The substance GGACGANG [RNAcompete motif RNCMPT00433] showed a binding signal (z-score (mean of top ten 7-mers)) in series [14] of 7.68.
